Literature values as cited in patent US5397694A, “Protease inhibitor” (Merck Patent GmbH, priority 1989, dated 1995).

B1: Eglin C: Eglin variant with tyrosine where Eglin B has histidine (protein, UniProt P01051 1-70, looked up)
Eglin C: TEFGSELKSFPEVVGKTVDQAREYFTLHYPQYDVYFLPEGSPVTLDLRYNRVRVFYNPGTNVVNHVPHVG
  isoelectric point (pI), published report: 6.45
